Experiment [1] concerns the target T1, human kallikrein 2 (hK2) (human, UniProt P20151 25-261).
T1 construct: two preparations treated as one molecule; also called kallikrein hK2
Kind of experiment: residual enzyme activity against [I]o/[E]o, fluorogenic substrate.

The target of experiment [2] is T2, human neutrophil elastase (HNE) (human, UniProt P08246 30-247, limits assumed).
T2 sequence (looked up): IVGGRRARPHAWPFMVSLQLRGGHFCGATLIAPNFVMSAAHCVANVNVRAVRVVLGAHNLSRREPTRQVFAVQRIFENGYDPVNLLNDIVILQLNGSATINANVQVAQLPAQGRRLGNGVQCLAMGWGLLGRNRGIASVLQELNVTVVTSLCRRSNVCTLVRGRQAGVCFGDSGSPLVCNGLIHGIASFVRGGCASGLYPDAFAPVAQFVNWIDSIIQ
The experiment is described as above.

Experiment [3] addresses T3, human plasma kallikrein (PK) (human, UniProt P03952 20-638). Described as above.
The target of experiment [4] is T1, human kallikrein 2 (hK2). Briefly: cell-based or functional assay.
In a further experiment the target is human kallikrein hK1 (human, UniProt P06870 25-262). Kind of experiment: cell-based or functional assay.
Experiment [5] concerns the target T4, urokinase plasminogen activator (uPA) (UniProt P00749 21-431, limits assumed). Briefly: cell-based or functional assay.
The target of experiment [6] is T2, human neutrophil elastase (HNE). Briefly: cell-based or functional assay.
Experiment [7] addresses T3, human plasma kallikrein (PK). Kind of experiment: cell-based or functional assay.
The target of experiment [8] is T1, human kallikrein 2 (hK2). Briefly: progress curve, pseudo-first order, fluorogenic substrate. The procedure: (§1) Under these conditions, a fixed amount of enzyme (2 nM) was mixed with different concentrations of inhibitor (0-800 nM) and an excess of substrate (10 μM). Each reaction was made in reaction buffer (50 mM Tris pH 7.5, 150 mM NaCl, 0,05% Triton X-100, 0.01% BSA) at 25° C. for 45 min and the rate of product formation was measured using a FLₓ800 fluorescence 96-well microplate reader (Biotek, USA). In this model, inhibition is considered to be irreversible over the course of reaction and the progress of enzyme activity is expressed by product formation (P), beginning at a rate (vz) and is inhibited over time (t) at a first-order rate (kobs), rate constant that is dependent only on inhibitor concentration.

The target in experiment [9] is T2, human neutrophil elastase (HNE). Described as above. The procedure: as §1
In experiment [10] the target is T3, human plasma kallikrein (PK). The experiment is described as above. The procedure:
as §1

The target of experiment [11] is T5, human kallikrein 14 (hK14) (human, UniProt Q9P0G3 25-251, limits assumed).
T5 construct: range counted on GenBank AAK48524 (printed), which may differ from the UniProt numbering; also called recombinant hK14
T5 sequence (looked up): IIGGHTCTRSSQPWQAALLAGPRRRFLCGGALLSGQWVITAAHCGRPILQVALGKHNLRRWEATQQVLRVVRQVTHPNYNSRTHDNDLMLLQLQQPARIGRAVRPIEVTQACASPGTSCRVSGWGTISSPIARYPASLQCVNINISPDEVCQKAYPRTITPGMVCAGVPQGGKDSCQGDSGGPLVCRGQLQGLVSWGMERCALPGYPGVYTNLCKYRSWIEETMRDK
Kind of experiment: progress curve.

Another experiment concerns the target T6, human kallikrein 5 (hK5) (human, UniProt Q9Y337 67-293, limits assumed).
T6 sequence (looked up): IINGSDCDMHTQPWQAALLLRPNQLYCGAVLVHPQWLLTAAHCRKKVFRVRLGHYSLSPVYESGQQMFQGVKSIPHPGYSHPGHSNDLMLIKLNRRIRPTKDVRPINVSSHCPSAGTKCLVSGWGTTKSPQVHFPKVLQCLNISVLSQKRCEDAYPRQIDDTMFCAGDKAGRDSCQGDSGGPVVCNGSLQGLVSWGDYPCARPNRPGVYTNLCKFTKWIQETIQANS
Briefly: cell-based or functional assay.

Experiment [12] concerns the target T7, human kallikrein 13 (hK13) (human, UniProt Q9UKR3 26-277, limits assumed).
T7 sequence (looked up): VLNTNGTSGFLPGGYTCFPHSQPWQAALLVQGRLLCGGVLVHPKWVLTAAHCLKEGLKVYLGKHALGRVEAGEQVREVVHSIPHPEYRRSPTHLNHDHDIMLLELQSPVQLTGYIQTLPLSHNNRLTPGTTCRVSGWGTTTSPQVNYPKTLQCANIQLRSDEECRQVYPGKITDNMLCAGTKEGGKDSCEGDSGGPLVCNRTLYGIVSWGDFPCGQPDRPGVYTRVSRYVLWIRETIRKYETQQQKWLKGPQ
Kind of experiment: cell-based or functional assay.

The target in experiment [13] is prostate specific antigen (PSA, hK3) (human, UniProt P07288 25-261). Kind of experiment: cell-based or functional assay.
The next experiment concerns the target T8, human kallikrein 8 (hK8) (human, UniProt O60259 33-260).
T8 sequence (looked up): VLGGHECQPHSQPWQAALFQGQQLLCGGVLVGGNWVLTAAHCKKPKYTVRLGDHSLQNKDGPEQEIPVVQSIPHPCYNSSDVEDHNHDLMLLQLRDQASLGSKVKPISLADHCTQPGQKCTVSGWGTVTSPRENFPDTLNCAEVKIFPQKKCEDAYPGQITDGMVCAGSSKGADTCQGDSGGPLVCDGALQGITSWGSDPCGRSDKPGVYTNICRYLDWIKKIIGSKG
Briefly: cell-based or functional assay.

The next experiment deals with human kallikrein 6 (hK6) (human, UniProt Q92876 22-244). Briefly: cell-based or functional assay.
The target in experiment [14] is T1, human kallikrein 2 (hK2). Kind of experiment: cell-based or functional assay. The source holds these as a separate data set.
Experiment [15] concerns the target T2, human neutrophil elastase (HNE). Briefly: cell-based or functional assay. The source holds these as a separate data set.
For experiment [16], the target named is thrombin. Briefly: cell-based or functional assay.
Experiment [17] has as its target T9, human chymotrypsin (Chtr) (human, UniProt P17538 19-263). Briefly: cell-based or functional assay.
The next experiment deals with human kallikrein 4 (hK4) (human, UniProt Q9Y5K2 31-254, limits assumed). Briefly: cell-based or functional assay.
The target of experiment [18] is T5, human kallikrein 14 (hK14). Briefly: cell-based or functional assay.
Experiment [19] concerns the target T3, human plasma kallikrein (PK). Kind of experiment: cell-based or functional assay. This is another data set of the same source.
Experiment [20] deals with T5, human kallikrein 14 (hK14). Kind of experiment: progress curve, pseudo-first order, 37 C. The procedure:
The association rate constants for interactions of hK14, with different inhibitors were determined under pseudo-first order conditions using the progress curve method (Morrison and Walsh, 1988). Under these conditions, a fixed amount of enzyme (2 nM) was mixed with different concentrations of inhibitor (0-80 nM) and an excess of substrate (20 μM). Reactions were performed in reaction buffer (50 mM Tris pH 7.5, 150 mM NaCl, 0.05% Triton X-100, 0.01% BSA) at 37° C. for 45 min and the rate of product formation was measured using a FLₓ800 fluorescence 96-well microplate reader (Biotek, USA) Inhibition is considered to be irreversible over the course of reaction and the progression of enzyme activity is expressed as product formation (P), beginning at a rate (vz) and is inhibited over time (t) at a first-order rate (kobs), where the rate constant is only dependent on the inhibitor concentration.
Kinetic analysis of the inhibition of human hK14 by recombinant serpins were performed under pseudo-first-order conditions using an excess of inhibitor at various molar ratios of hK14. The time-dependent inactivation of the enzyme through reaction with serpin was monitored continuously, following the decrease in the rate of substrate turnover. Progress curves for reactions with different serpin concentrations were fitted to equation 1 to calculate values describing the rate constant (kobs). The association rate constants (kₐ) were determined from the slope of kobs values versus the concentration of the hK14 inhibitors.

Experiment [21] addresses T4, urokinase plasminogen activator (uPA). Kind of experiment: cell-based or functional assay. This is another data set of the same source.
The target in experiment [22] is T2, human neutrophil elastase (HNE). Briefly: cell-based or functional assay. The source holds these as a separate data set.
Experiment [23] addresses thrombin. Briefly: cell-based or functional assay. This is another data set of the same source.
The target in experiment [24] is T9, human chymotrypsin (Chtr). Briefly: cell-based or functional assay. The source holds these as a separate data set.
The target in experiment [25] is T5, human kallikrein 14 (hK14). Briefly: cell-based or functional assay. The source holds these as a separate data set.
The target of experiment [26] is T3, human plasma kallikrein (PK). Kind of experiment: cell-based or functional assay. This is another data set of the same source.
Experiment [27] deals with T5, human kallikrein 14 (hK14). Briefly: residual hK14 activity against [I0]/[E0]. In a few lines:
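hK14 preincubated 4 hours at 37° C with varying inhibitor concentrations in 50 mM Tris pH 7.5, 150 mM NaCl, 0.05% Triton X-100, 0.01% BSA; residual activity read with Boc-Val-Pro-Arg-AMC (ex 340/em 485 nm). SI taken as abscissa intercept of vi/v₀ versus [I₀]/[E₀] linear regression.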

Experiment [28] addresses T5, human kallikrein 14 (hK14). Kind of experiment: residual hK14 activity after 4 h at 37 C against [I0]/[E0]. The procedure: SI values of rAAT, rACT, and their variants were determined with hK14 incubating the protease with varying concentrations of inhibitor. After an incubation of 4 hours at 37° C. in reaction buffer (50 mM Tris, pH 7.5, 150 mM NaCl, 0.05% Triton X-100, 0.01% BSA), the residual activity was detected by the addition of fluorescent substrate (Boc-Val-Pro-Arg-AMC). Fluorescence was measured with excitation at 340 nm (±15) and emission at 485 nm (±10) in black 96 well plates using a microplate fluorescence reader FLₓ800 (Bio-Tek Instruments, Inc.). The SI value corresponds to the abscissa intercept of the linear regression analysis of fractional velocity (velocity of inhibited enzyme reaction (vi)/velocity of uninhibited enzyme reaction (v₀)) vs. the molar ratio of the inhibitor to enzyme ([I₀]/[E₀]).

Substitutions are numbered along the chain they refer to.

For orientation: kon means a measure of how fast the partners come together. High values mean fast association, low ones slow association. Usually % Inhibition stands for the change of the read-out against control, counted positive when it falls. Higher therefore signals strong suppression.

T3 sequence (P03952 20-638 limits assumed): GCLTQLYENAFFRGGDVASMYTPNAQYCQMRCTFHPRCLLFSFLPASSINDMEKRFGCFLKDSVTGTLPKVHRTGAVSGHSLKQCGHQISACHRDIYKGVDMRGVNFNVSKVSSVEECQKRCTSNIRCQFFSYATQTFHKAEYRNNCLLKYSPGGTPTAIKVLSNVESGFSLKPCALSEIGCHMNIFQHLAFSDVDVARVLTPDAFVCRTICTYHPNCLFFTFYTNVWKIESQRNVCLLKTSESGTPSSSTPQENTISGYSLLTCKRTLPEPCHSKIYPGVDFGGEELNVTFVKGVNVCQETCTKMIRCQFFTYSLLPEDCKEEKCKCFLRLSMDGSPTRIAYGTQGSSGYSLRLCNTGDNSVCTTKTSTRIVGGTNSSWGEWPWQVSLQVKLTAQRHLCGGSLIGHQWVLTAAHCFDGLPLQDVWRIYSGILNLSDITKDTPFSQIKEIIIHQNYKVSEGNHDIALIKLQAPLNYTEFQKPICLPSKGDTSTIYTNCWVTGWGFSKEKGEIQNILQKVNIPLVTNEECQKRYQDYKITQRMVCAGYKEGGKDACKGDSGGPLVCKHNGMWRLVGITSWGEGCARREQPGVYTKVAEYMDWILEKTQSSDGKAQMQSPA
T9 sequence (P17538 19-263): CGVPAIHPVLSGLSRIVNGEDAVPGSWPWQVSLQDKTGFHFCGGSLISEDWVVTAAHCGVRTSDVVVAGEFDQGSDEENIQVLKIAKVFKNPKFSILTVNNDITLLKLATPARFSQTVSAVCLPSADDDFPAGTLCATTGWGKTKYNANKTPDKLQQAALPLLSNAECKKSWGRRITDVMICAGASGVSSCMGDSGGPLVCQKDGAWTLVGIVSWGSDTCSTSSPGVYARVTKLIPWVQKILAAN
human kallikrein 4 (hK4), sequence (Q9Y5K2 31-254 limits assumed): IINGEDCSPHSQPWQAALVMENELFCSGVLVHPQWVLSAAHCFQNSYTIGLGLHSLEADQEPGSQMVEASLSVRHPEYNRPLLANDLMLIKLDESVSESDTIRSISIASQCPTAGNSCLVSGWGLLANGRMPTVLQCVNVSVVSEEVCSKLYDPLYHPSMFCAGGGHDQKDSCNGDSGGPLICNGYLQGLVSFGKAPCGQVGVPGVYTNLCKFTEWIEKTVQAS

B1: rACT6.1 (other)
chain: MRGSHHHHHHSRHPNSPLDEENLTQENQDRGTHVDLGLASANVDFAFSLYKQLVLKAPDKNVIFSPLSISTALAFLSLGAHNTTLTEILKGLKFNLTETSEAEIHQSFQHLLRTLNQSSDELQLSMGNAMFVKEQLSLLDRFTEDAKRLYGSEAFATDFQDSAAAKKLINDYVKNGTRGKITDLIKDLDSQTMMVLVNYIFFKAKWEMPFDPQDTHQSRFYLSKKKWVMVPMMSLHHLTIPYFRDEELSCTVVELKYTGNASALFILPDQDKMEEVEAMLLPETLKRWRDSLEFREIGELYLPKFSISRDYNLNDILLQLGIEEAFTSKADLSGITGARNLAVSQVVHKAVLDVFEEGTEASAATAVKIMTRSNAVETRTIVRFNRPFLMIIVPTDTQNIFFMSKVTNPKQA
notes: recombinant ACT variant, RSL substrate peptide MTRSN; N-terminal His tag, E. coli TG1; also called MD61; MD 61
As to B1, the figures for the “SI (stoichiometry of inhibition)” value (in the experiment with human kallikrein 2 (hK2) [1]; in experiment [2]; in experiment [3]) were 19, 159 and 16, respectively. Further, the INHIBITION % was found to be 100% with human kallikrein 2 (hK2) [4]; 0% with human kallikrein hK1; 0% in [5]; 60% in experiment [6]; 100% in experiment [7]. Further, the kon is 3440 M⁻¹ s⁻¹ in the experiment with human kallikrein 2 (hK2) [8], 1190 M⁻¹ s⁻¹ in [9] and 8020 M⁻¹ s⁻¹ in experiment [10].

B2: ACTE8 (other)
chain: B1 chain with M370L, T371Q, S373A, N374I, A375L
notes: also called rACTE8
In the case of B2, the kon in experiment [11] and in [20] was 575000 M⁻¹ s⁻¹ in each case. Besides, the Percentage inhibition in the experiment with human kallikrein 5 (hK5) is 100%; in experiment [12], 0%; in [13], 0%; with human kallikrein 8 (hK8) it was 34%; in the experiment with human kallikrein 6 (hK6), 72%; with human kallikrein 2 (hK2) [14], 100%. The Percentage inhibition in [15] amounted to 0%; in the experiment with thrombin [16], 0%; in experiment [17], 14%; with human kallikrein 4 (hK4), 100%; in experiment [18], 100%; in [19], 36%. The “% Inhibition” value stood at 0% in experiment [21]; 0% in [22]; 0% with thrombin [23]; 14% in experiment [24]; 100% in [25]; 36% in experiment [26]. Besides, the “SI (stoichiometry of inhibition)” value in experiment [27] and in [28] was 1.2 throughout.

Source of the values: patent US20140341881A1 (DERMADIS, published 2014).
